The target in the experiment is Measles virus matrix protein (MeV-M) fused to a twin StrepII tag (Measles virus) (UniProt Q9W850). In words: SEC-MALS.

Substance “Measles virus matrix protein (MeV-M) fused to a twin StrepII tag (from UniProt Q9W850 1-335) (natural protein)” displayed a stoichiometry N of 2.

The values above are taken from article doi:10.1101/2021.10.11.463969.
